Experimental data published in the supplement of paper PMC9732359.
± gives the uncertainty stated by the source.

Assay: protein stability index of a GFP-peptide fusion (yeast GPS) (PSI 1-4); higher = more stable; sorted into four equal gates, so the index is relative within each strain
Outline: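 Sequencing reads from sorted gates were used to score each peptide. The library consisted of tiled 17-residue yeast protein peptides fused downstream of GFP on a Cherry-expressing plasmid, pooled and carried in yeast. Mid-log cultures in leucine-free medium were split into four equal gates by GFP/Cherry ratio, and each gate's plasmids were PCR-amplified and Illumina-sequenced. The protein stability index adds up, over all gates, the read frequency multiplied by the gate number.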

Sequence	protein stability index (san1∆)	protein stability index (ubr1∆)	protein stability index (doa10∆)	protein stability index (pdr5∆)
EEGRAIPGEYVTYALSG [RPS21A]	2.81 ± 0.19	2.96 ± 0.16		
LRLCLDIVPYFLKHNGE [RPN1]	1.71 ± 0.082	2.52 ± 0.074	2.3 ± 0.063	2.01 ± 0.037
HMMKRWGYQMVWAPTQK [POP1]	2.59 ± 0.059	2.56 ± 0.054	2.15 ± 0.054	2.4 ± 0.051
HEDEKLIPTIFRYITTW [PRP8]	1.9 ± 0.051	2.23 ± 0.033	2.6 ± 0.06	2.25 ± 0.048
LAREVPQQSGKKLLINK [DPB4]	1.86 ± 0.1	1.58 ± 0.067	1.43 ± 0.092	2.06 ± 0.063
EDLVDRIENPEKYAAAA [RPP0]	2.93 ± 0.054	3.09 ± 0.057	3.05 ± 0.078	3.28 ± 0.099
TYRCSIKNLPADVSKLM [SRB2]	2.33 ± 0.05	2.69 ± 0.044	2.56 ± 0.061	2.83 ± 0.05
LHLDYNFNLKPTKTLTT [PRP8]	2.68 ± 0.039	2.5 ± 0.03	2.45 ± 0.034	2.7 ± 0.037
IMLLQLELGSCFSQENI [SIN4]	2.52 ± 0.067	2.27 ± 0.062	1.64 ± 0.046	1.87 ± 0.047
SVREINLYMLVTTCVYL [SSN8]	2.33 ± 0.065	1.92 ± 0.047	2.32 ± 0.057	1.67 ± 0.047
LQNDLIHKIQNDNNLKK [RPN5]	3.11 ± 0.054	3.12 ± 0.065	2.96 ± 0.081	3.24 ± 0.068
VTNSLSNEEKEKIKMKL [GAL11]	3.1 ± 0.13			
SSEIKIYYNELQNKPDA [SIR4]	2.46 ± 0.29	3.23 ± 0.087	2.91 ± 0.23	3.3 ± 0.14
ALRPSDIFGANAASGSN [YOR098C/NUP1]	2.22 ± 0.062	2.52 ± 0.059	2.67 ± 0.057	1.99 ± 0.044
VKDFTSLGFNEVFSRPE [RPO21]	2.96 ± 0.27	2.9 ± 0.19		2.56 ± 0.27
DSESESGDKEATAPLIQ [RPN8]	3.28 ± 0.093	3.49 ± 0.28	3.44 ± 0.19	3.44 ± 0.12
NLTYSSGLFVDVKKRTY [RPB2]	2.4 ± 0.071	2 ± 0.031	2.31 ± 0.052	2.58 ± 0.051
NWWHSEFEIPVSFNGFK [BRR2]	1.14 ± 0.17	1.34 ± 0.058	1.49 ± 0.098	1.32 ± 0.068
NKSSVRPTGGANMATVP [MED6]	2.71 ± 0.1	2.83 ± 0.057	2.69 ± 0.063	2.79 ± 0.074
DPKLEKCLNYRNVNWIE [ITC1]	2.96 ± 0.056	2.95 ± 0.046	2.96 ± 0.069	2.88 ± 0.09
LYAIKKVTLNKETQQYE [BRR2]	2.99 ± 0.094	3.36 ± 0.081	3.03 ± 0.15	3.21 ± 0.13
LDENLNSLSSNLSSLIV [YJL041W/NSP1]	2.66 ± 0.065	2.6 ± 0.044	2.41 ± 0.04	2.54 ± 0.061
REDLNKAEYVDQYDAER [RPO31]	3.33 ± 0.092	3.34 ± 0.083	3.15 ± 0.1	3.11 ± 0.11
HYKVPTDTSTTATAATN [MED6]	2.29 ± 0.067	2.61 ± 0.044	2.28 ± 0.054	2.62 ± 0.053
SFEKLYEGMKLGNHAIT [YMR129W/POM152]	1.85 ± 0.24	2 ± 0.15	2.85 ± 0.17	1.47 ± 0.27
PGLEFLDDTTIPVGLMA [MCD1]	3.03 ± 0.041	2.52 ± 0.055	1.99 ± 0.057	2.71 ± 0.059

Sequence	protein stability index (san1∆)	protein stability index (ubr1∆)	protein stability index (doa10∆)	protein stability index (pdr5∆)
KRTICKKCHRLLWTPKK [RPR2]	2.81 ± 0.048	2.26 ± 0.037	2.42 ± 0.051	2.45 ± 0.05
GSFKRVKPQYDEIHIPA [BRR2]	2.33 ± 0.096	2.46 ± 0.11	2.73 ± 0.1	3.07 ± 0.14
AMFAALQQKQQQRFQAL [SWI1]	1.3 ± 0.12	1.62 ± 0.038	1.36 ± 0.051	1.62 ± 0.053
RAEAKAQGVAVQLKRQP [RPL21A]	1.71 ± 0.12	2.46 ± 0.11	2.75 ± 0.096	2.19 ± 0.08
MSEVITITKRNGAFQNS [RRP4]	2.79 ± 0.067	2.18 ± 0.059	2.33 ± 0.083	2.31 ± 0.076
VAQPDSLRETNTTDPLG [SIR2]	2.41 ± 0.12	3.08 ± 0.14	3.09 ± 0.17	3.45 ± 0.17
SDAVMAEHSQNKIDQSL [YJL041W/NSP1]	3.08 ± 0.052	3.07 ± 0.056	3.08 ± 0.064	3.18 ± 0.044
GKDCKLQNLQRIIRKKI [RRI2]	3.14 ± 0.096	3.05 ± 0.13	2.98 ± 0.092	3.51 ± 0.14
EFVNGGKVVKNVLLLDS [RRP46]	1.34 ± 0.2	1.9 ± 0.11	2.42 ± 0.17	2.02 ± 0.069
EDKVFASKGRTKIDMPI [BRN1]	2.59 ± 0.26			
DDLKKDHIAIDWEDEEK [DSN1]	3.07 ± 0.065	2.82 ± 0.063	2.73 ± 0.083	3.06 ± 0.072
KVENLDYMYENGKLTSA [YML031W/NDC1]	3.04 ± 0.12		3.59 ± 0.25	3.3 ± 0.12
KLYVDAVHSIIALSRRF [YDL116W/NUP84]	1.82 ± 0.12	1.93 ± 0.064	2.01 ± 0.077	1.81 ± 0.065
KPQFENHVKQFYERLDK [MED11]	2.57 ± 0.088	2.17 ± 0.17	2.87 ± 0.12	2.46 ± 0.19
DKLWTLIPEDKRDQYLK [RPL28]	3.13 ± 0.07	3.18 ± 0.24	3.32 ± 0.19	2.88 ± 0.22
NKNIDIGLLNKSKSSLD [RPN2]	1.76 ± 0.096	1.92 ± 0.05	2.37 ± 0.071	2.22 ± 0.097
VRDPWSIDFRTYRCSIK [SRB2]	1.47 ± 0.13	2.31 ± 0.083	2.35 ± 0.11	2.41 ± 0.12
EVSKDLIAVYYSFGGLL [RPB8]	2.46 ± 0.079	2.72 ± 0.057	2.55 ± 0.051	2.7 ± 0.067
LDPTDDEGHVLKLENLH [SIN4]	3.12 ± 0.13			3.16 ± 0.23
EKERLESLTKEISAAHN [SMC3]	2.79 ± 0.13	3.42 ± 0.19	3 ± 0.26	3.22 ± 0.15
VVRAASSLASQDVDFYK [RRP6]	3.06 ± 0.16	1.48 ± 0.089	2.13 ± 0.066	2.04 ± 0.057
LRRTTQRVFDETEQEYS [YDL116W/NUP84]	3.2 ± 0.061	3.19 ± 0.043	3.21 ± 0.064	3.03 ± 0.046
ILNELQPNARALERYDE [SMC1]	3.27 ± 0.078	3.49 ± 0.086	3.3 ± 0.22	3.61 ± 0.11
NDVQGIDDVQTIKVVKR [RPP1]	2.69 ± 0.053	2.81 ± 0.056	3.08 ± 0.064	2.62 ± 0.066
ISFVLGVRSNHLRSNIL [SMC1]	2.08 ± 0.097	2.47 ± 0.064	2.09 ± 0.061	2.16 ± 0.088
